These results are taken from patent CN117007808A.

In the assay the target is 融合蛋白gD-CD2v (猪伪狂犬病病毒 PRV HN1201; 非洲猪瘟病毒 ASFV SY18).

B1: 非洲猪瘟病毒CD2v蛋白单克隆抗体5G8 (antibody, V domains shown)
VH: YDHDYAKLGTELGSTSNGRQCAGIALTSRMKLWLNWVKQSHGKSLEWIGVIDPNNGGTTYNQKFKGKATLTVDKSSSTAYMEVRSLTSEYSAVYYCARYGKGIGLDYWGQGTSVTVSS
VL: DVVMTQTPLSLPVSLGDQASISCRSSQSLVHRNGNTYLHWYLQKPGQSPKLLIYKVSNRFSGVPDRFSGSGSGTDFTLKISRVEAVDLGVYFCSQSTHVPWTFGGGTKLEIK
Consider B1, for which the 阻断率 was 91 %.
